Values quoted from earlier work, collected in publication PMC2888693.

Target: Tube DD (Drosophila melanogaster) (UniProt P22812)
Sequence of UniProt P22812 (P22812 27-152): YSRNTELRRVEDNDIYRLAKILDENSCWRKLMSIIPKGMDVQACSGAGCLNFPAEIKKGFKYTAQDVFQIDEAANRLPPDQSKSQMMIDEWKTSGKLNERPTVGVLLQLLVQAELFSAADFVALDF

## Pelle DD (from UniProt Q05652)
  Kd: 500 nM
